The record followed here is patent US6017871A, “Protease-containing cleaning compositions” (The Procter & Gamble Company, priority 1997, dated 2000).

What all share (assay): Kinetic parameters for hydrolysis of synthetic peptide substrate
Series [1] concerns the target T1, B. amyloliquefaciens subtilisin (BPN'), wild type, Seq. ID No.7 (Bacillus amyloliquefaciens, UniProt P00782).
T1 construct: made in house; host or cells: protease-deficient Bacillus subtilis
The format is biochemical. As to conditions: Table V; 0.1 M Tris-HCL buffer, pH 8.6, 25° C. On the procedure: (§1) The kinetic parameters kcat, KM, and kcat KM are measured for hydrolysis of the synthetic peptide substrate succinyl-L-Ala-L-Ala-L-Pro-L-Phe-p-nitroanilide using the method described in P. Bonneau et al. (1991) J. Am. Chem. Soc., Vol. 113, No. 3, p. 1030. Briefly, a small aliquot of subtilisin variant stock solution is added to a 1 cm cuvette containing substrate dissolved in 0.1 M Tris-HCL buffer, pH 8.6, and thermostated at 25° C. The reaction progress is followed spectrophotometrically by monitoring the absorbance of the reaction product p-nitroaniline at 410 nm. Kinetic parameters are obtained by using a non-linear regression algorithm to fit the reaction velocity and product concentration for each reaction to the Michaelis-Menten equation.
(§2) Numerous variants are made as per the teachings of these Protease Manufacture Examples. Kinetics data and stability data are generated for such variants. The kinetics data are generated using the methods described hereinbefore and are provided in Table V. The stability data are generated as detailed herein.

Series [2] deals with T2, Bacillus lentus subtilisin (GG36), wild type, Seq. ID No.10 (Lederbergia lenta, UniProt P29600).
T2 construct: The mature subtilisin protein is coded by the codons beginning at the codon GCG (334-336) corresponding to Ala; made in house; host or cells: Bacillus subtilis
T2 sequence (P29600 1-269): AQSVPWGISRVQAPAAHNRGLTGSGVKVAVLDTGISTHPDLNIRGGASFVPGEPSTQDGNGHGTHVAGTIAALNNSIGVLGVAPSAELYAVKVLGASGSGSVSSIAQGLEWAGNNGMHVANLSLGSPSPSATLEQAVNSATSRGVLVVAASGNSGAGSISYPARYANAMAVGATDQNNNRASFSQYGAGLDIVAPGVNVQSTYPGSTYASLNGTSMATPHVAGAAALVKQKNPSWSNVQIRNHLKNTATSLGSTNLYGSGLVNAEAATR
It is filed as biochemical. The conditions noted are these: Table III; 0.1 M Tris-HCL buffer, pH 8.6, 25° C. On the procedure: as §1, §2

Substrate in series [3]: C[C@H](NC(=O)CCC(=O)O)C(=O)N[C@@H](C)C(=O)N1CCC[C@H]1C(=O)N[C@@H](Cc1ccccc1)C(=O)Nc1ccc([N+](=O)[O-])cc1
It is filed as biochemical, Bacillus amyloliquefaciens. As to conditions: other: Table V, 0.1 M Tris-HCL buffer, pH 8.6, 25° C. How it is done: as §1, §2

Substrate in series [4]: C[C@H](NC(=O)CCC(=O)O)C(=O)N[C@@H](C)C(=O)N1CCC[C@H]1C(=O)N[C@@H](Cc1ccccc1)C(=O)Nc1ccc([N+](=O)[O-])cc1
The format is biochemical, Bacillus lentus. The conditions noted are these: other: Table III, 0.1 M Tris-HCL buffer, pH 8.6, 25° C. On the procedure:
as §1, §2

Substrate in series [5]: C[C@H](NC(=O)CCC(=O)O)C(=O)N[C@@H](C)C(=O)N1CCC[C@H]1C(=O)N[C@@H](Cc1ccccc1)C(=O)Nc1ccc([N+](=O)[O-])cc1
It is filed as biochemical, Bacillus lentus. The conditions noted are these: other: Table III, 0.1 M Tris-HCL buffer, pH 8.6, 25° C. On the procedure:
as §1
The source holds these as a separate data set.

Residue numbers refer to the chain shown, from its start. Numbers in names are those of the source. Numbered stars: 1 amine (or outer) side, 2 acyl side, 3 side chain; on linkers, the order of the positions; unused ones are H or OH. Peptide text beside a SMILES is read from it. * marks the point of attachment. pNA = O=[N+]([O-])c1ccc(N*)cc1; Suc = O=C(CCC(=O)[*:2])[*:1]

T1 sequence (P00782 108-382): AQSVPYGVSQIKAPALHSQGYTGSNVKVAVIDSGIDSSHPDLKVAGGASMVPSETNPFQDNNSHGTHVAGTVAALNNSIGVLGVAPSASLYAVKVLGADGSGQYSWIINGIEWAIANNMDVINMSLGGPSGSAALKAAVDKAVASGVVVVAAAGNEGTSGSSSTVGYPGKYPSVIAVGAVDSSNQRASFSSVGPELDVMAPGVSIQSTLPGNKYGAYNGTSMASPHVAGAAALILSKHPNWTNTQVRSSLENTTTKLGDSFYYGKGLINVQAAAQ

For the molecule `C[C@H](NC(=O)CCC(=O)O)C(=O)N[C@@H](C)C(=O)N1CCC[C@H]1C(=O)N[C@@H](Cc1ccccc1)C(=O)Nc1ccc([N+](=O)[O-])cc1` [succinyl-L-Ala-L-Ala-L-Pro-L-Phe-p-nitroanilide] (Suc-AAPF-pNA), the kcat in series [1] is 50 s⁻¹. The kcat/KM in series [1] worked out at 3.60E + 05 s^-1 M^-1; in series [2] it was 218000 M⁻¹ s⁻¹.

B1: B. amyloliquefaciens subtilisin (BPN') variant BPN'-N76D/Y217L (Bacillus amyloliquefaciens; N183D/Y324L) (protein)
chain: AQSVPYGVSQIKAPALHSQGYTGSNVKVAVIDSGIDSSHPDLKVAGGASMVPSETNPFQDNNSHGTHVAGTVAALDNSIGVLGVAPSASLYAVKVLGADGSGQYSWIINGIEWAIANNMDVINMSLGGPSGSAALKAAVDKAVASGVVVVAAAGNEGTSGSSSTVGYPGKYPSVIAVGAVDSSNQRASFSSVGPELDVMAPGVSIQSTLPGNKYGALNGTSMASPHVAGAAALILSKHPNWTNTQVRSSLENTTTKLGDSFYYGKGLINVQAAAQ
notes: made in house; host or cells: protease-deficient Bacillus subtilis
B1: in series [3], the Km is 460 µM, the kcat was 380 s⁻¹ and the kcat/Km turned out to be 8.30E + 05 s^-1 M^-1.

B2: Bacillus lentus subtilisin (GG36), wild type, Seq. ID No.10 (Lederbergia lenta) (protein)
chain: T2 sequence (P29600 1-269)
notes: The mature subtilisin protein is coded by the codons beginning at the codon GCG (334-336) corresponding to Ala; made in house; host or cells: Bacillus subtilis
With B2, in series [4], the Km is 780 µM, the kcat amounted to 170 s⁻¹ and the kcat/Km came to 2.20E + 05 s^-1 M^-1.

B3: Bacillus lentus subtilisin variant N76D/S103A (Protease #3) (Lederbergia lenta; N74D/S101A) (protein)
chain: T2 sequence (P29600 1-269) with N74D, S101A
notes: as for B2
Consider B3, for which, in series [5], the Km turned out to be 1400 µM, the kcat is 400 s⁻¹ and the kcat/Km worked out at 286000 M⁻¹ s⁻¹.

B4: Bacillus lentus subtilisin variant N76D/I107V (Protease #5) (Lederbergia lenta; I105V/N74D) (protein)
chain: T2 sequence (P29600 1-269) with N74D, I105V
notes: as for B2
For the molecule B4, in series [5], the Km was 1100 µM, the kcat amounted to 219 s⁻¹ and the kcat/Km was 199000 M⁻¹ s⁻¹.

B5: Bacillus lentus subtilisin variant N76D/V104I (Protease #4) (Lederbergia lenta; N74D/V102I) (protein)
chain: T2 sequence (P29600 1-269) with N74D, V102I
notes: as for B2
Regarding B5, in series [5], the Km came out at 1100 µM, the kcat was 459 s⁻¹ and the kcat/Km turned out to be 417000 M⁻¹ s⁻¹.

B6: Bacillus lentus subtilisin variant N76D/S99D/S101R (Protease #7) (Lederbergia lenta; N74D/S97D/S99R) (protein)
chain: T2 sequence (P29600 1-269) with N74D, S97D, S99R
notes: as for B2
Turning to B6, in series [5], the Km came to 380 µM, the kcat worked out at 146 s⁻¹ and the kcat/Km was 384000 M⁻¹ s⁻¹.

B7: Bacillus lentus subtilisin variant N76D/N123S (Protease #6) (Lederbergia lenta; N121S/N74D) (protein)
chain: T2 sequence (P29600 1-269) with N74D, N121S
notes: as for B2
Turning to B7, in series [5], the Km stood at 1800 µM, the kcat came out at 115 s⁻¹ and the kcat/Km is 64000 M⁻¹ s⁻¹.

B8: Bacillus lentus subtilisin variant N76D/S99D (Protease #1) (Lederbergia lenta; N74D/S97D) (protein)
chain: T2 sequence (P29600 1-269) with N74D, S97D
notes: as for B2
B8: in series [5], the Km amounted to 610 µM, the kcat came to 88 s⁻¹ and the kcat/Km was found to be 144000 M⁻¹ s⁻¹.

B9: Bacillus lentus subtilisin variant N76D/S101R (Protease #2) (Lederbergia lenta; N74D/S99R) (protein)
chain: T2 sequence (P29600 1-269) with N74D, S99R
notes: as for B2
Regarding B9, in series [5], the Km was found to be 1300 µM, the kcat was found to be 371 s⁻¹ and the kcat/Km amounted to 285000 M⁻¹ s⁻¹.

B10: Bacillus lentus subtilisin variant N76D (Lederbergia lenta; N74D) (protein)
chain: T2 sequence (P29600 1-269) with N74D
notes: as for B2
Regarding B10, in series [5], the Km was determined as 800 µM, the kcat stood at 219 s⁻¹ and the kcat/Km was 274000 M⁻¹ s⁻¹.

For orientation: kcat means the number of substrate molecules converted per active site and unit of time at saturation. One may read the Km as the substrate concentration at which the rate is half of its maximum.
